B1: Intraflagellar transport protein 25 (Chlamydomonas reinhardtii), B8LIX8 (parent)
chain: MKDYAREENGGLVVMASCSDERFPPENMLDGKDNTFWVTTGMFPQEFVLRLESCIRVSKITTLSLNVRKLAVEKCDQDKPDQFEKVFEVELANRGDRLQTEVHQVNIRAKYLKFILLQGHGEFATVNRVSVVGGDDDGGGYDEPGGGYGSMQRQPSMGYGGGGGSAATGFAADPGNAAAGGGGGFEDEF
partner: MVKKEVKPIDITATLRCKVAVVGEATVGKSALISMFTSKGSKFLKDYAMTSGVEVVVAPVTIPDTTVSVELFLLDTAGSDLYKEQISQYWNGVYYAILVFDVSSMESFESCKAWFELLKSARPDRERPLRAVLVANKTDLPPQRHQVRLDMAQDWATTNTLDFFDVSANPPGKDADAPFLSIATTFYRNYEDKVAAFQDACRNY

Variants of: B1
Details: with ift27_chlre IFT27, A8HN58

Variant | effect of a mutation on the interaction
V38R | disrupting interaction
T125E | disrupting interaction
T40R | disrupting interaction
